In article PMC10322983, “Intramolecular interaction kinetically regulates fibril formation by human and mouse α-synuclein” (Scientific Reports, 2023):

Target: the molecule itself
Experiment: thioflavin T fluorescence of fibril formation; monomeric αS (50 μM in Fig. 5; 20–200 μM in Fig. 4) with 10 μM ThT, 96-well plates with Teflon polybeads, shaking at 500 rpm, 37 °C (other temperatures in Fig. 6), PBS

B1: m-αS Δ104–140 (domain or fragment)
chain: not shown
  binding result: binds
